Measurements as given in publication PMC10948894, “Cryo-EM structures of type IV pili complexed with nanobodies reveal immune escape mechanisms” (Nature Communications, 2024).
Residue numbers refer to the chain shown, from its start. Names may count otherwise.

Experiments:
[1] = biological target: type IV pili of N. meningitidis 8013, SB sequence type pilin PilE with GATDH on S63 and G3P on S69 (Neisseria meningitidis)
[2] = biological target: type IV pili of N. meningitidis 8013, SB sequence type pilin PilE with GATDH on S63 and G3P on S69 (Neisseria meningitidis); assay: cryo-EM structure; purified pili 10 µg/ml with nanobody 50 µg/ml, vitrified at 4 °C; helical refinement
[3] = biological target: T1, type IV pili of the N. meningitidis 8013 pglAON* strain (SB pilin with the GATDH-Gal double sugar on S63) (Neisseria meningitidis 8013 (serogroup …, strain, GATDH with a second sugar (galactose in position 3) on serine 63)); assay: immunostaining of cells or tissue; as a1 but nanobody 5 µg/ml and anti-His tag 17.5 µg/ml (experiments with C24_S112-114G, Fig. 7f and g); conditions: one partner purified
T1 construct: numbers count on: the mature protein; also called GATDH-GLA; GATDH-GAL variant
T1 chain: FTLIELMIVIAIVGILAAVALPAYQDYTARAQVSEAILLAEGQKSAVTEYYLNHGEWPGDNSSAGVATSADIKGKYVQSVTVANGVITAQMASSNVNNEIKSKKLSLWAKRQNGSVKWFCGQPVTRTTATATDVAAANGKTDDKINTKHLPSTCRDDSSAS

B1: C24 nanobody (VHH)
VHH: QLQLVESGGGLVQPGGSLRLSCASSGFRSDYYAIVWFRQAPGKEREGVSCISTSGKTTIYADSVKGRFTISRDNAKNTVYLQMNSLKPEDTAVYYCAADFRGSRLSDVCSYSSMDYWGKGTLATVSS
B1 gave an inhibition of type IV pili-dependent bacterial auto-aggregation (blocks the pilus-pilus interaction, m1 with m1); indicated amounts of nanobody, Fig. 3c [1] of 5 µg/mL and a stoichiometry N [2] of 1.

B2: C24_S112-114G nanobody (VHH)
VHH: B1 VHH with S110G, S112G
notes: as the chain of m8 (C24) with the two stated changes; also called C24 S112G S114G double mutant; source: E. coli BL21 (DE3)/pLysS (plasmid pET26b-C24 mutated), purified; not shown: His tag, C-terminal, kept
B2: binds [3].

B3: F10 nanobody (VHH)
VHH: QLQLVESGGGLVQPGGSLRLSCAASGFTLDQYAIGWFRQAPGKEREGVSCISSRGGATNYAHSVKGRFTISRDNAKNTVYLQMNSLKPEDTAVYYCAAGVYTIVTGTGPEDGMDYWGKGTLVTVSS
B3 was tested, and the inhibition of type IV pili-dependent bacterial auto-aggregation (blocks the pilus-pilus interaction, m1 with m1); indicated amounts of nanobody, Fig. 3c [1] was 5 µg/mL and the stoichiometry N [2] was 1.
